The target in experiment [1] is T1, CD26 (human, UniProt P27487). The experiment in a line: BLI. (In BLI a coated tip is dipped into the sample, and binding shifts an interference pattern.)
Experiment [2] addresses T1, CD26. Put plainly: BLI. This is another data set of the same source.
Experiment [3] addresses 21G583 CD26 fragment 29-300 (human). Put plainly: FACS. On the technique in general: A flow cytometer gives signals particle by particle.
The target of experiment [4] is 23G645 CD26 fragment 498-766 (human). The experiment in a line: FACS.
Experiment [5] deals with 21G584 CD26 fragment 29-237 (human). The experiment in a line: FACS.
In experiment [6] the target is 21G585 CD26 fragment 29-182 (human). The experiment in a line: FACS.

We go through 10 molecules from patent US20260356969 (published 2026).

Where two headings read alike, the source gives them in different places.

T1 sequence (P27487 29-766): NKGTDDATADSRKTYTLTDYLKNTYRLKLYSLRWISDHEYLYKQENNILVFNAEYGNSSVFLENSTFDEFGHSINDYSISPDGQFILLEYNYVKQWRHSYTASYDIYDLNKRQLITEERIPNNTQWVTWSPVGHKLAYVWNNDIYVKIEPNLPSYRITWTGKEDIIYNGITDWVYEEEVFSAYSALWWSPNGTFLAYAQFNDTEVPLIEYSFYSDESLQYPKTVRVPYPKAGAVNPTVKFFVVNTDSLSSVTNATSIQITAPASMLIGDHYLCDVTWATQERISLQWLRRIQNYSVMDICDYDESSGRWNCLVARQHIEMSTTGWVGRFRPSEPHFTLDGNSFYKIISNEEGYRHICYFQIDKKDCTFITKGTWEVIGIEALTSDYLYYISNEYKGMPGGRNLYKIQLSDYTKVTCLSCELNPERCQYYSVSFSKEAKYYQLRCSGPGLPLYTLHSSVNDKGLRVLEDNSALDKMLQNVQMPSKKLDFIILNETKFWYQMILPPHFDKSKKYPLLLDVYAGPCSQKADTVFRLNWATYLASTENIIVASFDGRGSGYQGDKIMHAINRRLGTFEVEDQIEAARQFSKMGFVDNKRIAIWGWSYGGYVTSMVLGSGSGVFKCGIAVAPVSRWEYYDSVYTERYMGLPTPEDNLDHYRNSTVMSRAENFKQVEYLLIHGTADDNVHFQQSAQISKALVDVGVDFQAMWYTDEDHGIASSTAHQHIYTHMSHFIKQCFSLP
Sequence of 21G585 CD26 fragment 29-182 (human) (chain, as listed by the source): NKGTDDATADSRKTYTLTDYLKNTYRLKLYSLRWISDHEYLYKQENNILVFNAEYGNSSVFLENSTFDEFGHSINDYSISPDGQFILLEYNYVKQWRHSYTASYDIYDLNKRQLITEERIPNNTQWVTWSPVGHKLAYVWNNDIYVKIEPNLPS
Sequence of 21G583 CD26 fragment 29-300 (human) (chain, as listed by the source): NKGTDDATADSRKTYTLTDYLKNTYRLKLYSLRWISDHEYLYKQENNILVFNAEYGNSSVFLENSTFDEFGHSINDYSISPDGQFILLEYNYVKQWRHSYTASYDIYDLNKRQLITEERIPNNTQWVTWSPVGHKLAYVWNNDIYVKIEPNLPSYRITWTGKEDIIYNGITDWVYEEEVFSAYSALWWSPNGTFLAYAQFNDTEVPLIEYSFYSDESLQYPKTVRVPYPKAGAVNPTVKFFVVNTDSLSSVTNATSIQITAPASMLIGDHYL
Sequence of 21G584 CD26 fragment 29-237 (human) (chain, as listed by the source): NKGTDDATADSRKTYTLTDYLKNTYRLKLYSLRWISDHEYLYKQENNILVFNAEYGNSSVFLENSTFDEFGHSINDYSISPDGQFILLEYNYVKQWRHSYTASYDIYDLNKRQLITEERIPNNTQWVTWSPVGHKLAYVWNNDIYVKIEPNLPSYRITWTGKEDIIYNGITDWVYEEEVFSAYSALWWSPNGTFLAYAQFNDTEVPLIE
Sequence of 23G645 CD26 fragment 498-766 (human) (chain, as listed by the source): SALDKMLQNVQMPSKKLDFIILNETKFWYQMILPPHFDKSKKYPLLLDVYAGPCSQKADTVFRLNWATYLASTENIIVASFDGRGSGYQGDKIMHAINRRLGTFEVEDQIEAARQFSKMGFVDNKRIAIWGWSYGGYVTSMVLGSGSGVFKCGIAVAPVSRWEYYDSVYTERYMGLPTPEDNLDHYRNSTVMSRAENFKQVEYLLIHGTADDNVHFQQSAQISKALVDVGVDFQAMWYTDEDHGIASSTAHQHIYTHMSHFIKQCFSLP

B1: 17G105 (CD26 arm) (antibody)
chain: DIVLTQSPASLAVSLGQRATISCRASESVEYYGTSLMQWYQQKPGQPPKLLIYTASNVESGVPVRFSGSGSGTDFSLNIHPVEEDDIAMYFCQQSRKVPYTFGGGTKLEIKGGGGSGGGGSGGGGSQVQLQQSGPELMKPGASVKISCKATGYSFSGFWIEWVKQRPGHGLEWIGEILPGSGASNYHENFKGRATITADTSANTAYMQLRSLTSEDSAVYYCARERYYGSKYFDVWGAGTTVTVSS
With B1, the Kd in the experiment with CD26 [1] came to 39.3 nM.

B2: 19G297 (CD26 arm) (antibody, V domains shown)
VH: EVQLQESGPGLVKPSGTLSLTCAVSGDSITSGYWHWIRQAPGKGLEWVGYINYSGYTYYNPSLKSRFTISRDTSKNQYYLQLNSVTAEDTAVYYCTSERNWGAFAYWGQGTLVTVSS
VL: ENVLTQSPASLSASPGERVTITCRASSSVISTYLHWYQQKPGQAPKLWIYSTSNLASGVPARFSGSGSGTDYTLTISSVEPEDFATYYCQQFSGYPYTFGQGTKLEIK
As for B2, in the experiment with CD26 [2], binding was characterised by a dissociation constant (Kd) of 4.4 nM.

B3: 19G296 (CD26 arm) (antibody, V domains shown)
VH: QVQLQESGPGLVKPSETLSLTCTVSGDSITSGYWHWIRQPPGKGLEWIGYINYSGYTYYNPSLKSRFTISRDTSKNQYYLQLNSVTAEDTAVYYCTSERNWGAFAYWGQGTLVTVSS
VL: ENVLTQSPATLSASPGERATLSCRASSSVISTYLHWYQQKPGQAPKLWIYSTSNLASGVPARFSGSGSGTDYTLTISSVEPEDFAVYYCQQFSGYPYTFGQGTKLEIK
For B3, the equilibrium dissociation constant (Kd) in the experiment with CD26 [2] worked out at 14.8 nM.

B4: 17G61 (CD26 arm) (antibody)
chain: DIVMTQAAPSVSVTPGESVSISCRSDKSLLHSNGNTYLYWFLQRPGQSPQVLIYRMSNLASGVPDRFSGSGSGTGFTLRVSRVEAEDVGVYYCFQQLEYPYTFGGGTKLEIKGGGGSGGGGSGGGGSEVQLQQSGAELVKPGASVKLSCTASGFNIKDTYIYWVKQRPGQGLEWIGRIEPMNGNTKYDPKFQGKATMTANTSSNTAYLHLSSLASEDTAVYFCSRGGWLLLYVMDYWGQGTSVTVSS
As to B4, the Kd with CD26 [1] stood at 17.3 nM.

B5: 21G428-429 (antibody, V domains shown)
VH: EVQLVQSGAELVKPGASVKLSCAASGFNIKDTYIYWVRQAPGQGLEWVGRIEPMNGNTKYDPKFQGRFTMTANTSKNTAYLQLSSLRSEDTAVYYCSRGGWLLLYVMDYWGQGTLVTVSS
VL: DIVMTQSPSSLSVTPGERVSISCRSDKSLLHSNGNTYLYWFLQKPGQSPQVLIYRMSNLASGVPDRFSGSGSGTDFTLTISRVEAEDVGVYYCFQQLEYPYTFGQGTKLEIKR
As to B5, the binding result in experiment [3], in experiment [4], in experiment [5] and in experiment [6] was “no binding” each time.

B6: 21G587 (CD26 arm) (antibody, V domains shown)
VH: EVQLVQSGAELVKPGASVKLSCAASGFNIKDTYIYWVRQAPGQGLEWVGRIEPMNGNTKYDPKFQGRFTMTANTSKNTAYLQLSSLRSEDTAVYYCSRGGWLLLYVMDYWGQGTLVTVSS
VL: DIVMTQSPSSLSVTPGERVSISCRSDKSLLHSNGNTYLYWFLQKPGQSPQVLIYRMSNLASGVPDRFSGSGSGTDFTLTISRVEAEDVGVYYCFQQLEYPYTFGQGTKLEIK
In the experiment with CD26 [2], B6 displayed a Kd of 0.352 nM.

B7: 19G294 (CD26 arm) (antibody, V domains shown)
VH: EVQLVQSGAELVKPGASVKLSCAASGFNIKDTYIYWVRQAPGQGLEWVGRIEPMNGNTKYDPKFQGRFTMTANTSKNTAYLQLSSLRSEDTAVYYCSRGGWLLLYVMDYWGQGTLVTVSS
VL: DIVMTQSPSSLSVTPGERVSISCRSDKSLLHSNGNTYLYWFLQKPGQSPQVLIYRMSNLASGVPDRFSGSGSGTDFTLTISRVEAEDVGVYYCFQQLEYPYTFGQGTKLEIK
B7: in the experiment with CD26 [2], the dissociation constant Kd amounted to 0.914 nM.

B8: 19G293 (CD26 arm) (antibody, V domains shown)
VH: QVQLVQSGAELVKPGASVKLSCKASGFNIKDTYIYWVRQAPGQGLEWIGRIEPMNGNTKYDPKFQGRVTMTANTSINTAYLELSSLRSEDTAVYYCSRGGWLLLYVMDYWGQGTLVTVSS
VL: DIVMTQSPLSLSVTPGEPASISCRSDKSLLHSNGNTYLYWFLQKPGQSPQVLIYRMSNLASGVPDRFSGSGSGTDFTLKISRVEAEDVGVYYCFQQLEYPYTFGQGTKLEIK
With B8, the dissociation constant (Kd) with CD26 [2] is less than 0.001 nM.

B9: 17G29 (CD26 arm, YS110) (antibody, V domains shown)
VH: EVQLVESGAGVKQPGGTLRLTCTASGFSLTTYGVHWVRQAPGKGLEWVGVIWGDGRTDYDAAFMSRVTISKDTSKSTVYLQMNSLRAEDTAVYYCMRNRHDWFDYWGQGTTVTVSS
VL: DILLTQSPSSLSATPGERATITCRASQGIRNNLNWYQQKPGQAPRLLIYYSSNLQSGVPSRFSGSGSGTDFTLTISRLQPEDVAAYYCQQSIKLPFTFGSGTKVEIK
For the molecule B9, the affinity in the experiment with CD26 [2], expressed as Kd, was 1.18 nM.

B10: 19G292 (CD26 arm) (antibody, V domains shown)
VH: QVQLLQSGAEVVKPGASVKISCKASGFNIKDTYIYWVKQPTGQGLEWIGRIEPMNGNTKYDPKFQGRFTMTANTSINTAYLQLSSLTSEDTAVYYCSRGGWLLLYVMDYWGQGTTVTVSS
VL: DIVMTQSASSLPVTPGESVSISCRSDKSLLHSNGNTYLYWFLQRPGQSPQVLIYRMSNLASGVPDRFSGSGSGTEFTLTISRVEAEDVGVYYCFQQLEYPYTFGPGTKLEIK
In the case of B10, the dissociation constant Kd with CD26 [2] was less than 0.001 nM.

What is called Kd is a measure of binding affinity in units of concentration.
